Measured values published in PMC11703243.

Assays:
[1] = target: BAX, recombinant human, wild type (human) (UniProt Q07812); assay: SEC
[2] = target: Alexa Fluor 488-labeled BAX^WT (human) (UniProt Q07812); assay: SEC

Substance | stoichiometry N [1] | stoichiometry N [2]
BAX, recombinant human, wild type (from UniProt Q07812 1-192) (natural protein) | 2 | –
Alexa Fluor 488-labeled BAX^WT (from UniProt Q07812 1-192) (natural protein) | – | 2
